Where only a bound is given, the exact number is not on record here.

The stoichiometry N is the number of molecules, sites or subunits per partner or assembly. Broadly, the Kd is the constant that tells how readily two partners part at equilibrium.

The target in test [1] is GSU0105, triheme c-type cytochrome from Geobacter sulfurreducens, with C-terminal Factor Xa-cleavable His-tag (Geobacter sulfurreducens). Kind of test: SAXS.
For test [2] the target is unchanged. Put plainly: pull-down.

Regarding “GSU0105, triheme c-type cytochrome from Geobacter sulfurreducens, with C-terminal Factor Xa-cleavable His-tag (natural protein)”, the stoichiometry N in test [1] amounted to 4. In turn, “PpcD, triheme cytochrome c7 from Geobacter sulfurreducens (natural protein)” returned a Kd in test [2] of less than 10 µM.

(Values after article doi:10.1101/2020.11.03.367284.)
